Measurements: publication PMC2567969

Tests used:
[1] = target: EGF receptor (Homo sapiens) (UniProt P00533); details: cited from earlier work
[2] = target: Ik2-MBPHis fusion protein (Drosophila); test: SPR; ProteOn XPR36, GLC chip; Ik2-MBPHis (1400 RU) and Sec13-MBP (5500 RU) amine-coupled; Spn-F injected at six concentrations 0.1625 to 5 μM; PBS pH 7.4, 0.005% Tween 20, 25°C; global fit to 1:1 Langmuir model

Which Kd [1] does the source give for EGF (from UniProt P01133) here?
Its Kd is 0.41 µM.

B1: Spn-F, recombinant, MBP-His6 tag cleaved (natural protein)
chain: MEASAAKITPMASSMSASGSTNSPSSEKMNYALQVALQTIKERCIQLQRRVASMEEENQQLREASSRSEGAPRANEIGVTGDVLSLKAQVSELQRQKEQLEEHIGMVSNENRRLWSRLSQISKDQQLNALPSSTDSRAQQNQNLVRSKTFTQHSPNPHLRQKMLSDGIKDLSLEEIALDDFGASSEELGYPYNLQKVEETTSEPDANVDAKRCLDGLQELRREAMKQQQELRSVMTLLENRIALKPCPECAQKTIKKPEMADKSLETDDSLTSELKNYESQHNGHNGTPPSQRINIIQEKIKADAADAMEKTCPMCGKQYSSQVSFNAFREHVEMHFIDDALELESENSIERQFEFVSHAVGDF
Which results are given for B1?
Kd [2]: 0.407 µM; koff [2]: 0.00169 s⁻¹; kon [2]: 4150 M⁻¹ s⁻¹
